The target of series [1] is T1, Bsu DNA polymerase I large fragment (Bacillus subtilis, UniProt O34996 O34996:297-880). As to the kind of experiment: BLI; correct dNTP, Ni(II), 200 mM KCl, 200 mM K glutamate, 30 C. The conditions noted are these: tags: New England Biolabs M0330L; label: 5' biotin on template; primed template with 5' template overhang. The protocol: Primer-template duplex was diluted (100 nM) into Annealing Buffer. Wash buffer was 20 mM Tris, pH 8.0, 200 mM KCl, 200 mM potassium glutamate, 0.01% (v/v), Tween-20, 100 μg/mL bovine serum albumin, 1.0 mM dithiothreitol. Binding Buffer was Wash Buffer containing 2.0 mM Ni(II)SO₄. Reaction Buffer was 20 mM Tris, pH 8.0, 50 mM KCl, MgCl₂ (10 mM), 0.01% (v/v) Tween-20, 100 μg/mL bovine serum albumin, 1.0 mM dithiothreitol. EDTA Wash Buffer was Binding Buffer containing 1.0 mM EDTA. Buffer containing Primer-Template (PT), Binding buffer containing one dNTP and Reaction Buffer were loaded (200 μL/well) into a Greiner 96-well black microplate (Sigma-Aldrich, St. Louis, Mo.; catalog number M9685), and PCR-grade mineral oil (Sigma-Aldrich, St. Louis, Mo.; catalog no. M8662) was applied (75 μL/well). High-precision streptavidin biosensors (Pall ForteBio Corp., Menlo Park, Calif.; catalog number 18-5117) were re-hydrated in Annealing Buffer for approximately 10 minutes before use. The Octet QK biosensor system (Pall ForteBio Corp., Menlo Park, Calif.) was set for 30° C. operation and was programmed to coat the biosensors with Primer-Template and wash away unbound Primer-Template with Wash Buffer. […]
Background: BLI is a label-free optical method that tracks binding on a fibre tip over time.

The target of series [2] is Bst DNA polymerase, full length (Bacillus stearothermophilus, UniProt P52026 P52026:1-876). Description: BLI; correct dNTP, 300 mM KCl, 30 C; minimal binding without dNTP. The conditions noted are these: tags: New England Biolabs M0328L; label: 5' biotin on template; primed template with 5' template overhang. The protocol: Primer-template duplex was diluted (100 μM) into Annealing Buffer. Binding buffer was 50 mM Tris, pH 8.0, 300 mM KCl, 0.1% (v/v) Triton-X100, 100 μg/mL bovine serum albumin. Reaction Buffer was Binding Buffer containing 10 mM MgCl₂. Buffer containing Primer-Template (PT), Binding buffer containing one dNTP, and Reaction Buffer were loaded (200 μL/well) into a Greiner 96-well black microplate (Sigma-Aldrich, St. Louis, Mo.; catalog number M9685), and PCR-grade mineral oil (Sigma-Aldrich, St. Louis, Mo.; catalog no. M8662) was applied (75 μL/well). Streptavidin (SA) Biosensors (Pall ForteBio Corp., Menlo Park, Calif.; catalog number 18-5019) were re-hydrated in Annealing Buffer for approximately 10 minutes before use. The Octet QK biosensor system (Pall ForteBio Corp., Menlo Park, Calif.) was set for 30° C. operation and was programmed to coat the biosensors with Primer-Template and wash away unbound Primer-Template with Binding Buffer. Biosensors were transferred to Binding Buffer containing 136 Unit/mL Bst DNA Polymerase and 200 μM dNTP (dATP, dTTP, dGTP or dCTP) as indicated (association phase) followed by Reaction Buffer for dNTP incorporation. Biosensors were transferred to Reaction Buffer containing Bst DNA Polymerase (136 Unit/mL) without dNTP to promote nick translation via 5′-3′ exonuclease activity. […]

Series [3] addresses T1, Bsu DNA polymerase I large fragment. As to the kind of experiment: BLI; dGTP, 1 mM Ni(II), 30 C; lower amplitude, higher kobs than ALK-G1. The conditions noted are these: tags: New England Biolabs M0330L; label: 5' biotin on template; primed template with 5' template overhang. The protocol:
(§1) Primer-template duplex was diluted (100 nM) into Annealing Buffer. Wash buffer was 30 mM Tris, pH 8.0, 160 mM KCl, 160 mM potassium glutamate, 0.01% (v/v), Tween-20, 100 μg/mL bovine serum albumin, 1.0 mM dithiothreitol. Binding Buffer was Wash Buffer containing Bsu Pol I (68 Unit/mL) 100 μM dGTP+1.0 mM Ni(II)SO₄. Reaction Buffer was Wash Buffer containing Bsu (1 U/mL), MgCl₂ (80 μM), dGTP (28.1 μM), α-S-dGTP (162 μM). EDTA Wash Buffer was Wash Buffer without Ni(II)SO₄ but containing 1.0 mM EDTA. Buffer containing Primer-Template (PT), Binding Buffer and Reaction Buffer containing were loaded (200 μL/well) into a Greiner 96-well black microplate (Sigma-Aldrich, St. Louis, Mo.; catalog number M9685), and PCR-grade mineral oil (Sigma-Aldrich, St. Louis, Mo.; catalog no. M8662) was applied (75 μL/well). […]
(§2) In assays for binding to biosensor coated with ssDNA primer-template, Bsu Pol I enzyme bound strongly to the primer/template-coated biosensor in the presence of correct dGTP (FIGS. 18A and 18B). […] The association phase for formation of the ternary complex was analyzed for how the association kinetic parameters may be affected by the number of nucleotides for incorporation into the homopolymer of the primer/template.

Series [4] shares this target. As to the kind of experiment: BLI; dGTP, 1 mM Ni(II), 30 C; highest amplitude. The conditions noted are these: tags: New England Biolabs M0330L; label: 5' biotin on template; primed template with 5' template overhang. The protocol: as §1, §2

T1 sequence (O34996 297-880, one chain of several): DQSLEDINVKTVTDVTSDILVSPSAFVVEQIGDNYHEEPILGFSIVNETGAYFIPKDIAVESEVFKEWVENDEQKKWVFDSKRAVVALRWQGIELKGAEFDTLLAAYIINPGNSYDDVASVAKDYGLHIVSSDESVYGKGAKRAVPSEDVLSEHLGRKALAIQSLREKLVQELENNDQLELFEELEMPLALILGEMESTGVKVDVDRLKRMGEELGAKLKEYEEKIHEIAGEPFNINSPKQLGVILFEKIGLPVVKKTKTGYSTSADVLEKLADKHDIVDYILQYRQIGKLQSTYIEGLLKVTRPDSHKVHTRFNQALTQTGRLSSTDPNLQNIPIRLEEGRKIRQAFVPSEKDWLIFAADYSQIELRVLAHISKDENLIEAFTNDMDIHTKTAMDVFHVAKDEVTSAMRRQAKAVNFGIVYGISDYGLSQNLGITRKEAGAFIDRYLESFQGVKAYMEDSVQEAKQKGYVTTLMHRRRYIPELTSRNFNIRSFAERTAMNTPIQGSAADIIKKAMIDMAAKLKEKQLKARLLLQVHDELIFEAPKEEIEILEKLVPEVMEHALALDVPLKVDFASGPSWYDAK
Bst DNA polymerase, full length, sequence (P52026 whole entry, one chain of several): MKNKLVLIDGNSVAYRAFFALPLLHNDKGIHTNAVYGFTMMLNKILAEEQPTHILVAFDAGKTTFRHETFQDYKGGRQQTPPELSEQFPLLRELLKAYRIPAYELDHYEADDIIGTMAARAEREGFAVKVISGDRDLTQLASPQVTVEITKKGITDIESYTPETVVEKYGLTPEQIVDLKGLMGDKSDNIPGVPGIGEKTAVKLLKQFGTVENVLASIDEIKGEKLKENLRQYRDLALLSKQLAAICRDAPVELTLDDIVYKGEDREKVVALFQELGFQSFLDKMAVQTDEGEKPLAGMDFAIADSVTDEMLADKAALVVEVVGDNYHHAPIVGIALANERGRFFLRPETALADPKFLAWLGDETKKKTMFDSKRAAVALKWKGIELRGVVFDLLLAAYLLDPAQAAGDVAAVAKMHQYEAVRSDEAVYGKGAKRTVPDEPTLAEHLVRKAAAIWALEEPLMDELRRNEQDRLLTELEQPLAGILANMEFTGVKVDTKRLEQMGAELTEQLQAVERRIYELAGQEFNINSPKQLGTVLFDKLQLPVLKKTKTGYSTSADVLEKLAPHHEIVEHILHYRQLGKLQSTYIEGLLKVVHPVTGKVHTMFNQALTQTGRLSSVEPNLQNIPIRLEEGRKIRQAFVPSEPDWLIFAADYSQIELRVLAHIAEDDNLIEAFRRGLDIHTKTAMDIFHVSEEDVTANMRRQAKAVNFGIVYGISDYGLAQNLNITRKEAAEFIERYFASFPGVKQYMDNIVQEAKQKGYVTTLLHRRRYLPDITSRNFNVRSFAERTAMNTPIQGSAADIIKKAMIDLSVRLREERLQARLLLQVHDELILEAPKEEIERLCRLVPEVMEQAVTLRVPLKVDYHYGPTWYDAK

B1: ALK C4493A/4496-4509AS primer-template (dsDNA)
DNA 1: GTGAGCCTGCAATCCCTGCCCCGGTTCATCCTGATGGAGCTCATGGCGGG
DNA 2: CCCGCCATGAGCTC
modifications: 3' inverted dT on template
Turning to B1, the binding result in series [1] is listed as “binds”.

B2: ALK wild-type 4460-4509S/4496-4509AS primer-template (dsDNA)
DNA 1: GTGAGCCTGCAATCCCTGCCCCGGTTCATCCTGCTGGAGCTCATGGCGGG
DNA 2: CCCGCCATGAGCTC
modifications: 3' inverted dT on template
Turning to B2, in series [2], the binding result is on record as “binds”.

B3: ALK-G4 primer-template (dsDNA)
DNA 1: GTGAGCCTGCAATCCCTGCCCCGGTTCATCCTGCTGGAGCTCATGGCGGG
DNA 2: CCCGCCATGAGCTCCAGCAGGATGAACC
modifications: 3' inverted dT on template
B3: in series [3], the binding result was “binds”.

B4: ALK-G1 primer-template (dsDNA)
DNA 1: GTGAGCCTGCAATCCCTGCCCCGGTTCATCCTGCTGGAGCTCATGGCGGG
DNA 2: CCCGCCATGAGCTCCA
modifications: 3' inverted dT on template
As for B4, in series [4], the binding result is given as “binds”.

B5: ALK-G2 primer-template (dsDNA)
DNA 1: GTGAGCCTGCAATCCCTGCCCCGGTTCATCCTGCTGGAGCTCATGGCGGG
DNA 2: CCCGCCATGAGCTCCAGCA
modifications: 3' inverted dT on template
As for B5, the binding result in series [3] was “binds”.

These data come from patent publication US20170022553, “NUCLEIC ACID SEQUENCING METHODS AND SYSTEMS” (OMNIOME, INC., published 2017).
